Measured values taken from the supplement of paper PMC9233669.
This sample holds only a part of the variants without activity.

Tests used:
biotinyl-Leu-oxazolone = assay: self-aminoacylation, catalytic enhancement (BLO) (fold over background); higher = more active; k-Seq, kA / k0A0; sequences stand for … in GGGAAUGGAUCCACAUCUACGAAUUC…UUCACUGCAGACUUGACGAAGCUG
Method in brief: (§1)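 Mutagenized RNA pools with a 21-nt variable region (0.43 μM) were reacted with each biotinyl-aminoacyl-oxazolone at 2–1250 μM for 90 minutes at room temperature, in 50 μL HEPES/NaCl/KCl/MgCl2/CaCl2 buffer containing 5% acetonitrile at pH 6.9–7.0. RNA captured on streptavidin was quantified by triplicate qPCR and by Illumina sequencing. The fraction reacted for each sequence was fit to a pseudo-first-order model with bootstrapping, and catalytic enhancement is the median kA divided by the uncatalyzed rate, taken as the low-activity peak of a bimodal Gaussian fit.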

biotinyl-Val-oxazolone = assay: self-aminoacylation, catalytic enhancement (BVO) (fold over background); higher = more active; k-Seq, kA / k0A0; sequences stand for … in GGGAAUGGAUCCACAUCUACGAAUUC…UUCACUGCAGACUUGACGAAGCUG
Method in brief: as §1

biotinyl-Ile-oxazolone = assay: self-aminoacylation, catalytic enhancement (BIO) (fold over background); higher = more active; k-Seq, kA / k0A0; sequences stand for … in GGGAAUGGAUCCACAUCUACGAAUUC…UUCACUGCAGACUUGACGAAGCUG
Method in brief: as §1

biotinyl-Phe-oxazolone = assay: self-aminoacylation, catalytic enhancement (BFO) (fold over background); higher = more active; k-Seq, kA / k0A0; sequences stand for … in GGGAAUGGAUCCACAUCUACGAAUUC…UUCACUGCAGACUUGACGAAGCUG
Method in brief: as §1

biotinyl-Trp-oxazolone = assay: self-aminoacylation, catalytic enhancement (BWO) (fold over background); higher = more active; k-Seq, kA / k0A0; sequences stand for … in GGGAAUGGAUCCACAUCUACGAAUUC…UUCACUGCAGACUUGACGAAGCUG
Method in brief: as §1

biotinyl-Met-oxazolone = assay: self-aminoacylation, catalytic enhancement (BMO) (fold over background); higher = more active; k-Seq, kA / k0A0; sequences stand for … in GGGAAUGGAUCCACAUCUACGAAUUC…UUCACUGCAGACUUGACGAAGCUG
Method in brief: as §1

| Sequence | self-aminoacylation (biotinyl-Leu-oxazolone) | self-aminoacylation (biotinyl-Val-oxazolone) | self-aminoacylation (biotinyl-Ile-oxazolone) | self-aminoacylation (biotinyl-Phe-oxazolone) | self-aminoacylation (biotinyl-Trp-oxazolone) | self-aminoacylation (biotinyl-Met-oxazolone) |
| --- | --- | --- | --- | --- | --- | --- |
| AAGUUUGCUAAUAGUCGCAAG [Fam3.1 aminoacylation ribozyme variant] | 1.01 | 1.15 | 1.33 | 32 | 7.99 | 1.47 |
| CUAGUUAAAACAAUCGGUCUG [Fam1A.1 aminoacylation ribozyme variant] | 0.801 | 0.679 | 0.795 | 0.675 | 0.622 | 0.958 |
| AUUCACGUAGGUCCUCGGGUG [Fam2.2 aminoacylation ribozyme variant] | 12.1 | 5.83 | 5.5 | 64.9 | 8.52 | 9.66 |
| UUUACCCUGGUCAUCGAAUGA [Fam2.1 aminoacylation ribozyme variant] | 1.19 | 1.05 | 1.31 | 1.02 | 1.78 | 1.22 |
| AUUCUCCUAGGUCUUCGGGUG [Fam2.2 aminoacylation ribozyme variant] | 8.25 | 4.77 | 4.96 | 44.1 | 7.39 | 7.28 |
| CCACACUUUAAACAAUCGGUC [Fam1B.1 aminoacylation ribozyme variant] | 0.733 | 0.825 | 0.718 | 2.02 | 1.3 | 0.633 |
| AUUACCCUGGUCACCGAGUGC [Fam2.1 aminoacylation ribozyme variant] | 2.61 | 1.45 | 1.76 | 3.95 | 2.11 | 1.43 |
| CCACAGAUCAAGCAAUCGGUC [Fam1B.1 aminoacylation ribozyme variant] | 0.81 | 0.824 | 1.01 | 2.39 | 1.61 | 0.576 |
| AUUCAUCUCGGUCAUCGGGUG [Fam2.2 aminoacylation ribozyme variant] | 9.9 | 4.55 | 4.65 | 49.8 | 6.85 | 6.97 |
| AAGAUUACUAAUAGUCGCAAG [Fam3.1 aminoacylation ribozyme variant] | 1.44 | 1.41 | 1.6 | 2.29 | 1.92 | 1.77 |
| CCACACUGCAAGCAAUAGGUC [Fam1B.1 aminoacylation ribozyme variant] | 0.915 | 0.907 | 0.905 | 1.15 | 0.601 | 0.777 |
| AUUACCCUGAUCAUGGAGUGA [Fam2.1 aminoacylation ribozyme variant] | 10.5 | 4.92 | 4.86 | 53.6 | 13 | 10.8 |
| CUACUACAUACAAUCGGUCUG [Fam1A.1 aminoacylation ribozyme variant] | 0.641 | 0.782 | 0.812 | 0.703 | 0.58 | 0.901 |
| CCCCACUUCAAGCAAUCCGUC [Fam1B.1 aminoacylation ribozyme variant] | 1.02 | 1.6 | 1.62 | 3.48 | 2.64 | 1 |
| AUUGACCUAGGUCAUCUGGUG [Fam2.2 aminoacylation ribozyme variant] | 2.42 | 1.7 | 1.83 | 8.46 | 2.27 | 1.9 |
| AUUACCCUGGUCAUCGCGAGA [Fam2.1 aminoacylation ribozyme variant] | 1.44 | 2.21 | 2.17 | 1.58 | 2.72 | 1.68 |
| CUACUUCCAACAUUCGGUCUG [Fam1A.1 aminoacylation ribozyme variant] | 1.54 | 1.39 | 1.17 | 1.68 | 1.16 | 1.07 |
| AAGUUGGAUAAUAGUCGCAAG [Fam3.1 aminoacylation ribozyme variant] | 0.984 | 1.01 | 1.17 | 1.31 | 1.12 | 1.11 |
| AUCCACCUAGGUCAGCGGGUG [Fam2.2 aminoacylation ribozyme variant] | 5.2 | 4.02 | 3.68 | 31.2 | 4.43 | 3.79 |
| CGACGUCAAACAAUCGGUCUG [Fam1A.1 aminoacylation ribozyme variant] | 1.24 | 1.66 | 1.25 | 4.02 | 1.82 | 1.84 |
| AAGUUUGCACAUAGUCGCAAG [Fam3.1 aminoacylation ribozyme variant] | 0.586 | 0.73 | 0.804 | 0.76 | 0.682 | 0.656 |
| CCACAUUUCAAGCAAUCGGGC [Fam1B.1 aminoacylation ribozyme variant] | 2.78 | 2.7 | 3.08 | 1.7 | 2.91 | 3.55 |
| CUACUGCAAACAAUGGGUCUG [Fam1A.1 aminoacylation ribozyme variant] | 1.13 | 1.08 | 1.25 | 1.5 | 1.12 | 1.2 |
| AAGUAUGCUAAUCGUCGCAAG [Fam3.1 aminoacylation ribozyme variant] | 1.37 | 1.56 | 1.81 | 2.35 | 1.76 | 1.71 |
| UUACUUCAAACAAUCGGACUG [Fam1A.1 aminoacylation ribozyme variant] | 0.969 | 0.854 | 1.08 | 7.94 | 4.92 | 1.26 |
